Measurements taken from the supplement of paper PMC11780869.

Test system: Bacillus subtilis
Assay: cleaved RNA product abundance (RNA/gDNA barcode ratio) relative to median wild-type variant (ratio to wild type); higher = more accumulation of the downstream cleavage product
Conditions: cleavage site: cggR-gapA (positions -7 to +36 mutated)
In short: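 Truncated aprE or tetM reporter mRNAs with barcoded RNase Y cleavage-site windows, mutagenized from oligos at a 9% error rate, sat in the B. subtilis chromosome. Cells grew in LB at 37°C from OD600 0.0003 to 0.3. Gel-selected cleaved RNA was reverse transcribed and its barcodes sequenced with those from genomic DNA, collapsing by UMI. Cleaved product abundance equals the RNA:gDNA barcode ratio per construct over the median construct with the unmutated site.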

[1] = experiment (reporter, strain, medium): exp 2b: truncated aprE reporter, strain BJT200
[2] = experiment (reporter, strain, medium): exp 4a: truncated aprE reporter, strain BJT201 with 2% xylose (RNase J1 expressed)
[3] = experiment (reporter, strain, medium): exp 6: tetM reporter, strain 168

Sequence | cleaved RNA product abundance [1] | cleaved RNA product abundance [2] | cleaved RNA product abundance [3]
ACAGACGAAGGAGCCGCGAAGAAGTTATTAAGAGATGAATAATCCCTCAATATAAATATCTCTCACTTATTTAAA | 0.114 | 0.108 | 
ACAGACGAAGGAGCCGCGAAGAAGTTATTAAGGAATGAATAATCCCTCAATATAAATATCTCTCACTTATTTAAA |  |  | 0.104
ACAGACGAAGGAGCCGCGAAGAAGTTATTAAGGCATGAATAATCCCTCAATATAAATATCTCTCACTTATTTAAA | 0.0773 |  | 
ACAGACGAAGGAGCCGCGAAGAAGTTATTAAGGGATAAATAATCCCTCAATATAAATATCTCTCACTTATTTAAA |  | 0.679 | 
ACAGACGAAGGAGCCGCGAAGAAGTTATTAAGGGATCAATAATCCCTCAATATAAATATCTCTCACTTATTTAAA |  | 0.762 | 
ACAGACGAAGGAGCCGCGAAGAAGTTATTAAGGGATGAATAAACCCTCAATATAAATATCTCTCACTTATTTAAA |  | 0.467 | 
ACAGACGAAGGAGCCGCGAAGAAGTTATTAAGGGATGAATAATACCTCAATATAAATATCTCTCACTTATTTAAA |  | 0.117 | 
ACAGACGAAGGAGCCGCGAAGAAGTTATTAAGGGATGAATAATCACTCAATATAAATATCTCTCACTTATTTAAA |  | 0.122 | 
ACAGACGAAGGAGCCGCGAAGAAGTTATTAAGGGATGAATAATCCCACAATATAAATATCTCTCACTTATTTAAA | 0.17 | 0.227 | 
ACAGACGAAGGAGCCGCGAAGAAGTTATTAAGGGATGAATAATCCCTCAAAATAAATATCTCTCACTTATTTAAA |  | 0.319 | 
ACAGACGAAGGAGCCGCGAAGAAGTTATTAAGGGATGAATAATCCCTCAATATAAATAACTCTCACTTATTTAAA | 1.05 | 0.969 | 
ACAGACGAAGGAGCCGCGAAGAAGTTATTAAGGGATGAATAATCCCTCAATATAAATATCTCTCACTTATTTAAA | 0.919 | 0.87 | 0.885
ACAGACGAAGGAGCCGCGAAGAAGTTATTAAGGGATGAATAATCCGTCAATATAAATATCTCTCACTTATTTAAA | 0.145 |  | 
ACAGACGAAGGAGCCGCGAAGAAGTTATTAAGGGATGAATAATCGCTCAATATAAATATCTCTCACTTATTTAAA |  | 0.134 | 
ACAGACGAAGGAGCCGCGAAGAAGTTATTAAGGGATGAATAATCTCTCAATATAAATATCTCTCACTTATTTAAA |  | 0.671 | 
ACAGACGAAGGAGCCGCGAAGAAGTTATTAAGGGATGAATAATTCCTCAATATAAATATCTCTCACTTATTTAAA |  | 0.684 | 
ACAGACGAAGGAGCCGCGAAGAAGTTATTAAGGGATGAATACTCCCTCAATATAAATATCTCTCACTTATTTAAA |  | 0.528 | 
ACAGACGAAGGAGCCGCGAAGAAGTTATTAAGGGATGAATTATCCCTCAATATAAATATCTCTCACTTATTTAAA |  | 0.548 | 
ACAGACGAAGGAGCCGCGAAGAAGTTATTAAGGGATTAATAATCCCTCAATATAAATATCTCTCACTTATTTAAA |  | 1.19 | 

Sequence | cleaved RNA product abundance [1] | cleaved RNA product abundance [2] | cleaved RNA product abundance [3]
ACAGACGAAGGAGCCGCGAAGAAGTTATTAAGGTATGAATAATCCCTCAATATAAATATCTCTCACTTATTTAAA | 0.117 | 0.143 | 
ACAGACGAAGGAGCCGCGAAGAAGTTATTAATGGATGAATAATCCCTCAATATAAATATCTCTCACTTATTTAAA |  | 0.214 | 
ACAGACGAAGGAGCCGCGAAGAAGTTATTATGGGATGAATAATCCCTCAATATAAATATCTCTCACTTATTTAAA |  | 0.357 | 
ACAGACGAAGGAGCCGCGAAGAAGTTATTTAGGGATGAATAATCCCTCAATATAAATATCTCTCACTTATTTAAA | 0.572 |  | 
ACAGACGAAGGAGCCGCGAAGAAGTTTTTAAGGGATGAATAATCCCTCAATATAAATATCTCTCACTTATTTAAA |  | 0.418 | 
ACAGACGAAGGAGCCGCGAAGAATTTATTAAGGGATGAATAATCCCTCAATATAAATATCTCTCACTTATTTAAA |  | 0.561 | 
ACAGACGAAGGAGCCGCGAAGTAGTTATTAAGGGATGAATAATCCCTCAATATAAATATCTCTCACTTATTTAAA |  | 1.29 | 
ACAGACGAAGGAGCCGCGAATAAGTTATTAAGGGATGAATAATCCCTCAATATAAATATCTCTCACTTATTTAAA | 1.19 | 1.47 | 
ACAGACGAAGGAGCCGCTAAAAAGTTATTAAGGGATGAATAATCCCTCAATATAAATATCTCTCACTTATTTAAA |  | 1.1 | 
ACAGACGAAGGAGCCGCTAACAAGTTATTAAAGGATGAATAATCCCTCAATATAAATATCTCTCACTTATTTAAA | 0.111 |  | 
ACAGACGAAGGAGCCGCTAAGAAATTATTAAGGGATGAATAATCCCTCAATATAAATATCTCTCACTTATTTAAA | 0.556 |  | 
ACAGACGAAGGAGCCGCTAAGAAGATATTAAGGGATGAATAATCCCTCAATATAAATATCTCTCACTTATTTAAA | 0.625 |  | 
ACAGACGAAGGAGCCGCTAAGAAGCTATTAAGGGATGAATAATCCCTCAATATAAATATCTCTCACTTATTTAAA |  | 0.52 | 
ACAGACGAAGGAGCCGCTAAGAAGTAATTAAGGGATGAATAATCCCTCAATATAAATATCTCTCACTTATTTAAA |  | 0.309 | 
ACAGACGAAGGAGCCGCTAAGAAGTGATTAAGGGATGAATAATCCCTCAATATAAATATCTCTCACTTATTTAAA |  | 0.419 | 
ACAGACGAAGGAGCCGCTAAGAAGTTACTAAGGGATGAATAATCCCTCAATATAAATATCTCTCACTTATTTAAA | 0.186 |  | 
ACAGACGAAGGAGCCGCTAAGAAGTTATTAAAGGATGAATAATCCCTCAATATAAATATCTCTCACTTATTTAAA |  | 0.157 | 
ACAGACGAAGGAGCCGCTAAGAAGTTATTAAGAGATGAATAATCCCTCAATATAAATATCTCTCACTTATTTAAA | 0.126 | 0.135 | 
ACAGACGAAGGAGCCGCTAAGAAGTTATTAAGGAATGAATAATCCCTCAATATAAATATCTCTCACTTATTTAAA |  | 0.0845 | 

Sequence | cleaved RNA product abundance [1] | cleaved RNA product abundance [2] | cleaved RNA product abundance [3]
ACAGACGAAGGAGCCGCTAAGAAGTTATTAAGGCATGAATAATCCCTCAATATAAATATCTCTCACTTATTTAAA | 0.115 |  | 
ACAGACGAAGGAGCCGCTAAGAAGTTATTAAGGGAAGAATAATCCCTCAATATAAATATCTCTCACTTATTTAAA |  | 0.638 | 
ACAGACGAAGGAGCCGCTAAGAAGTTATTAAGGGACGAATAATCCCTCAATATAAATATCTCTCACTTATTTAAA |  | 0.573 | 
ACAGACGAAGGAGCCGCTAAGAAGTTATTAAGGGAGGAATAATCCCTCAATATAAATATCTCTCACTTATTTAAA |  | 0.993 | 
ACAGACGAAGGAGCCGCTAAGAAGTTATTAAGGGATAAATAATCCCTCAATATAAATATCTCTCACTTATTTAAA |  | 1.15 | 
ACAGACGAAGGAGCCGCTAAGAAGTTATTAAGGGATGAATAAACCCTCAATATAAATATCTCTCACTTATTTAAA | 0.537 | 0.689 | 
ACAGACGAAGGAGCCGCTAAGAAGTTATTAAGGGATGAATAACCCCTCAATATAAATATCTCTCACTTATTTAAA |  | 0.437 | 
ACAGACGAAGGAGCCGCTAAGAAGTTATTAAGGGATGAATAATACCTCAATATAAATATCTCTCACTTATTTAAA |  | 0.15 | 
ACAGACGAAGGAGCCGCTAAGAAGTTATTAAGGGATGAATAATCACTCAATATAAATATCTCTCACTTATTTAAA |  | 0.129 | 
ACAGACGAAGGAGCCGCTAAGAAGTTATTAAGGGATGAATAATCCATCAATATAAATATCTCTCACTTATTTAAA |  | 0.186 | 
ACAGACGAAGGAGCCGCTAAGAAGTTATTAAGGGATGAATAATCCCACAATATAAATATCTCTCACTTATTTAAA |  | 0.252 | 
ACAGACGAAGGAGCCGCTAAGAAGTTATTAAGGGATGAATAATCCCCCAATATAAATATCTCTCACTTATTTAAA |  | 0.342 | 
ACAGACGAAGGAGCCGCTAAGAAGTTATTAAGGGATGAATAATCCCTAAATATAAATATCTCTCACTTATTTAAA | 0.745 | 0.831 | 
ACAGACGAAGGAGCCGCTAAGAAGTTATTAAGGGATGAATAATCCCTCAACATAAATATCTCTCACTTATTTAAA |  | 0.291 | 
ACAGACGAAGGAGCCGCTAAGAAGTTATTAAGGGATGAATAATCCCTCAAGATAAATATCTCTCACTTATTTAAA | 0.249 | 0.322 | 
ACAGACGAAGGAGCCGCTAAGAAGTTATTAAGGGATGAATAATCCCTCAATATAAATATCTCTCACTTATTTAAA | 1.04 | 0.985 | 1.03
ACAGACGAAGGAGCCGCTAAGAAGTTATTAAGGGATGAATAATCCCTCAATGTAAATATCTCTCACTTATTTAAA |  | 0.0932 | 
ACAGACGAAGGAGCCGCTAAGAAGTTATTAAGGGATGAATAATCCCTCTATATAAATATCTCTCACTTATTTAAA |  | 0.509 | 
